Assay results from patent EP4671269A1 (Akeso Biopharma Co., Ltd., dated 2025).

Legend:
human TIGIT-mFc [1] = target: T1, human TIGIT-mFc (human; mouse, UniProt Q495A1 22-141, limits assumed); assay: competitive ELISA vs CD155-hFc-Biotin, TIGIT-mFc coated
T1 construct: not shown: Fc protein fragment of mouse IgG
T1 sequence (looked up): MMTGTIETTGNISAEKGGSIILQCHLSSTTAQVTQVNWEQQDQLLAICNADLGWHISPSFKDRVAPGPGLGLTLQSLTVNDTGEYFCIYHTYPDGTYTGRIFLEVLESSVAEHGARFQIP

human TIGIT-mFc [2] = target: T1, human TIGIT-mFc; assay: indirect ELISA, TIGIT-mFc captured on plate
[3] = target: T2, TIGIT on the cell membrane (293T-TIGIT, Jurkat-TIGIT-NFAT-Luc cells) (human, UniProt Q495A1 22-244); assay: FACS, 293T-TIGIT cells
T2 construct: whole, on cells; also called cell membrane surface antigen TIGIT
T2 sequence (looked up): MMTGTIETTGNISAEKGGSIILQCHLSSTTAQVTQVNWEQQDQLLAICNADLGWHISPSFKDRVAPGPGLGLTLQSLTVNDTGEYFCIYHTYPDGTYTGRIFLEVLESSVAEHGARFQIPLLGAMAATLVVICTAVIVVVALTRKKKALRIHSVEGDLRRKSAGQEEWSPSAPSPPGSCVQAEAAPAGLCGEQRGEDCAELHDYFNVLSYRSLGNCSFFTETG

[4] = target: T2, TIGIT on the cell membrane (293T-TIGIT, …); assay: competitive FACS vs CD155-mFc, 293T-TIGIT cells
[5] = target: T2, TIGIT on the cell membrane (293T-TIGIT, …); assay: competitive FACS vs CD112-mFc, 293T-TIGIT cells
TGF-β1 [6] = target: T3, TGF-β1 (human, UniProt P01137 279-390); assay: competitive ELISA vs TGF-βRII-His-Biotin, TGF-β1 coated
T3 construct: also called human TGF-β1; TGF-β1 protein

TGF-β1 [7] = target: T3, TGF-β1; assay: indirect ELISA, TGF-β1 coated
TGF-β1 [8] = target: T3, TGF-β1; assay: indirect ELISA, TGF-β1 coated; remark: listed apart in the source
human TIGIT-hFc = target: T4, human TIGIT-hFc (human, UniProt Q495A1 22-141, limits assumed); assay: indirect ELISA, hybridoma screening
T4 construct: Screening antigen of the hybridoma ELISA; not shown: Fc protein fragment of human IgG
T4 sequence (looked up): T1 sequence (looked up)

B1: 26B12H2L2(hG4DM) (antibody, human IgG4 S228P, kappa, F234A L235A)
heavy: not shown
light: DIQMTQSPSSLSASVGDRVTITCRSSQHVSTALAWYQQKPGKSPKLLIYSASSRYSGVPDRFSGSGSGTDFTFTISSLQPEDFATYYCQQHYITPWTFGGGTKLEIKRTVAAPSVFIFPPSDEQLKSGTASVVCLLNNFYPREAKVQWKVDNALQSGNSQESVTEQDSKDSTYSLSSTLTLSKADYEKHKVYACEVTHQGLSSPVTKSFNRGEC
notes: Humanized anti-TIGIT antibody, IgG4 with F234A and L235A (EU numbering)
Question: With B1 as the binder, how does the EC50 (human TIGIT-mFc [1]) read?
Answer: 1.42 nM

B2: RG6058(hG4) (antibody, V domains shown)
VH: EVQLQQSGPGLVKPSQTLSLTCAISGDSVSSNSAAWNWIRQSPSRGLEWLGKTYYRFKWYSDYAVSVKGRITINPDTSKNQFSLQLNSVTPEDTAVFYCTRESTTYDLLAGPFDYWGQGTLVTVSS
VL: not shown
notes: Positive control anti-TIGIT antibody from CN108290946A; also called RG6058(hG4WT)
Question: B2 was tested. Which EC50 (human TIGIT-mFc [2]) did it give?
Answer: 0.055 nM

Question: And the EC50 [3]?
Answer: 1.61 nM

Question: What about the EC50 (human TIGIT-mFc [1]) of the same binder?
Answer: 1.68 nM

B3: Tiragolumab (antibody, human IgG1, kappa, V domains shown)
VH: B2 VH
VL: not shown
notes: Positive control anti-TIGIT antibody; also called RG6058(hG1WT)
Question: Which results are given for B3?
Answer: EC50 [4]: 1.28 nM; EC50 [5]: 0.837 nM

B4: TGF-βRII-mFc (Fc fusion, UniProt P37173 24-159, looked up)
chain: IPPHVQKSVNNDMIVTDNNGAVKFPQLCKFCDVRFSTCDNQKSCMSNCSITSICEKPQEVCVAVWRKNDENITLETVCHDPKLPYHDFILEDAASPKCIMKEKKKPGETFFMCSCSSDECNDNIIFSEEYNTSNPD
notes: also called TGF-βR2-mFc; not shown: Fc protein fragment of mouse IgG
Question: With B4 as the binder, how does the EC50 (TGF-β1 [6]) read?
Answer: 6.47 nM

Question: And the EC50 (TGF-β1 [7])?
Answer: 0.271 nM

Question: What about the EC50 (TGF-β1 [8]) of the same binder?
Answer: 0.356 nM

B5: 26B12 (antibody, V domains shown)
VH: EVQLQESGPGLVKPSQSLSLTCTVTGHSFTSDYAWNWIRQFPGNRLEWMGYISYSDSTNYNPSLKSRISITRDTSKNQFFLQMNSVTTEDTATYYCARLDYGNYGGAMDYWGQGTSVTVSS
VL: DIVLTQSHEFMSTSLRDRVSITCKSSQHVSTAVAWYQQKPGQSPKLLIYSASYRYTGVPDRFTGSGSGTDFTFTISSVKAEDLAVYYCQQHYITPWTFGGGTKLEIK
notes: Murine hybridoma antibody; also called anti-TIGIT antibody 26B12; monoclonal antibody secreted by hybridoma cell line LT019
Question: Does B5 bind (human TIGIT-hFc)?
Answer: binds
